Tests used:
[1] = tested on: carrageenan-stimulated mouse air pouch; assay: Carrageenan-stimulated mouse air pouch, inflammatory cell infiltration; assay type: in vivo; conditions: FIG. 2
Excerpt: The purpose of the following experiments were to determine the effect of 539A-M0237-D02 on inflammation and specifically on inflammatory cell infiltration into the carrageenan-stimulated mouse air pouch and on the arthritic index in collagen-induced arthritis (CIA) mice.
For the carrageenan-stimulated mouse air pouch model, subcutaneous injection of air into the hind flank or back of mice produces an air pouch in a week, the interior surface of which contains both fibroblast-like and macrophage-like cells. Inflammatory stimulation of the pouch results in leukocyte recruitment to the pouch and release of mediators (cytokines) into the exudate. Preventing inflammatory cell infiltration into the air pouch may translate into preventing inflammation of the synovium in rheumatoid arthritis.
The effect of 539A-M0237-D02 on inflammatory cell infiltration was compared to inflammatory cell infiltration indomethacin and a control (PBS). In addition, inflammatory cell recruitment was compared to an unstimulated mouse.

[2] = molecular target: T1, Human MMP-9 catalytic domain (Homo sapiens, UniProt P14780); assay: Ki measurement and inhibition model, fluorogenic substrate Mca-KPLGL-Dap(Dnp)-AR-NH2; assay type: biochemical; conditions: fluorogenic peptide substrates
T1 construct: Human MMP-9 catalytic domain (BIOMOL, SE-244); purchased BIOMOL SE-244
Protocol: (§1) This example characterized the interaction of the M0237-D02 hIgG1 with the human and mouse MMP-9. The Ki was measured and the inhibition mechanism was determined
(§2) Materials: • Substrate: Mca-KPLGL-Dap(Dnp)-AR-NH2 (M-2350) from BACHEM (521575). A 10 mM stock solution was prepared in DMSO. • Enzymes: • Human MMP-9 catalytic domain (BIOMOL, SE-244). Enzyme concentration was measured by titration with TIMP-1 (2522-104) • Mouse MMP-9 (R&D, 909-MM), APMA-activated. • M0237-D02 hIgG1: 2517-014. Dialysed against TCN. • TCNB: 50 mM Tris/HCl, 10 mM CaCl2, 150 mM NaC, […], pH 7.5. • -96-well black plates from Perkin Elmer (6005270) • Spectramax M2e to measure fluorescence emission of the substrate upon hydrolysis (temperature control set at 30° C.; λexc=328 nm and λem=393 nm)
(§3) The enzyme (final concentration=0.23 and 0.17 nM for the human and mouse MMP-9, respectively) was preincubated with various concentrations (0-50 nM) of M0237-D02 for 1 h at 30° C. The substrate was then added to a final concentration ranging from 5 to 40 μM and initial rates were recorded.
(§4) Each data point was measured in triplicate, and initial rates were averaged.
(§5) Averaged initial rates were plotted against the M0237-D02 concentration for each substrate concentration, and IC50's were calculated using the following equation: […]
(§6) The IC50 values were then plotted against the substrate concentration.

Mouse MMP-9 = molecular target: T2, Mouse MMP-9 (Mus musculus, UniProt P41245); assay: as above; assay type: biochemical; conditions: fluorogenic peptide substrates
T2 construct: purchased R&D Systems 909-MM (909-MM-010)
Protocol: as §1, §2, §3, §4, §5, §6

MCF-7 tumor sections = assay: Film in situ zymography (FIZ) on frozen tumor sections; assay type: cell-based, human; conditions: 500 nM; 37° C. overnight
Protocol: (§7) PBS-control treated tumors were screened with M0237-D02 for gelatinase expression using the FIZ approach. The tumors tested were Colo205 and MCF-7. Briefly, frozen slides of tumpor sections were dried at room temperature and 200 μl of in situ Zymo buffer (TCNB)+20 μg/ml of gelatin quenched substrate from molecular probes was added. The slides were incubate at 37° C. overnight in the presence of M0237-D02 at 500 nM or GM6001 used as a positive control at 100 μM. The substrate was washed in MilliQ (3 times) and the mounted slides were treated with anti-Fade+Dapi mounting medium.

Colo205 tumor sections = assay: as above; assay type: cell-based, human; conditions: 500 nM; 37° C. overnight
Protocol: as §7

MMP-9 = MMP-9 (Homo sapiens, UniProt P14780); assay: Enzyme inhibition assay (single point inhibition, IC50/Ki,app), substrate M-2350; assay type: biochemical; parameters: Human MMP-9 catalytic domain (BIOMOL, SE-244); purchased BIOMOL SE-244
Protocol: 343 unique sFabs from the anti-MMP-9/-2 M237-D02 affinity maturation campaign were discovered by phage display, produced in small scale (6 mL cultures in deep 24-well plates) and screened to select inhibitors with sub-nanomolar potency against the human enzymes and at least single-digit nanomolar potency toward the mouse orthologues. […] Isolates which appeared potent against both human and mouse MMP-2 were then subjected to IC50 analysis against hMMP-9. Sub-nanomolar inhibitors of hMMP-9 were further tested by IC50 analysis against mMMP-9 and h/m MMP-2, if sufficient small-scale sFab material was available. Thirteen potential h/m MMP-9/-2 sFab inhibitors were then produced in medium scale (250 mL cultures in flasks) and retested for h/m MMP-9 and h/m MMP-2 inhibition. Five potential lead candidates were reformatted as IgGs and retested in enzyme inhibition assays.
Human MMP-9 (Biomol #SE-244), mouse MMP-9 (R&D Systems #909-MM-010), human MMP-2 (Biomol #SE-237) and mouse MMP-2 (R&D Systems #924-MP-010) were tested at final concentrations of 1 nM, 0.25-0.4 nM, 2.5 nM and 0.2 nM, respectively. Target enzymes were incubated with inhibitor for two hours at 30° C. in reaction buffer (50 mM Tris-HCl pH 7.5, 150 mM NaCl, 5 mM CaCl2, 0.05% Brij-35) in a total volume of 90 μL using a white 96 well plate (Costar). Reactions contained 5 μL of small-scale sFab stock solution (average concentration of 500 nM) for single point inhibition analysis or a concentration series of sFab/IgG for IC50 Ki,app determinations. […] Reactions were initiated by the addition of 10 μL of a 10× concentrated stock of substrate, Mca-Lys-Pro-Leu-Gly-Leu-Dap(Dnp)-Ala-Arg-NH2, (Bachem M-2350), at final concentration of 10 μM and monitored at 30° C. in a Molecular Devices' Gemini fluorescence plate reader. […] Kinetic data were acquired by the increase in fluorescence, and initial rates for each condition were plotted against the total inhibitor concentration. […]

Sequence of MMP-9 (P14780 107-444 limits assumed): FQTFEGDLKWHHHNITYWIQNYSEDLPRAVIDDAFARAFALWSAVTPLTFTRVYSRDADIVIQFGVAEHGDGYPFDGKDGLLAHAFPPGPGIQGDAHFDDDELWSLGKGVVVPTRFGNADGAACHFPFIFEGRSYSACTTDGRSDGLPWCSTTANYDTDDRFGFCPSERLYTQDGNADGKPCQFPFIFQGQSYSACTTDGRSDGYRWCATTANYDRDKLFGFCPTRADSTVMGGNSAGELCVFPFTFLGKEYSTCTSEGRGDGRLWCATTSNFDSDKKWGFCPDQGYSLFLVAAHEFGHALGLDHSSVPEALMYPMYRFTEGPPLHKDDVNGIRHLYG
T1 sequence (P14780 107-444 limits assumed): as above
T2 sequence (P41245 108-730): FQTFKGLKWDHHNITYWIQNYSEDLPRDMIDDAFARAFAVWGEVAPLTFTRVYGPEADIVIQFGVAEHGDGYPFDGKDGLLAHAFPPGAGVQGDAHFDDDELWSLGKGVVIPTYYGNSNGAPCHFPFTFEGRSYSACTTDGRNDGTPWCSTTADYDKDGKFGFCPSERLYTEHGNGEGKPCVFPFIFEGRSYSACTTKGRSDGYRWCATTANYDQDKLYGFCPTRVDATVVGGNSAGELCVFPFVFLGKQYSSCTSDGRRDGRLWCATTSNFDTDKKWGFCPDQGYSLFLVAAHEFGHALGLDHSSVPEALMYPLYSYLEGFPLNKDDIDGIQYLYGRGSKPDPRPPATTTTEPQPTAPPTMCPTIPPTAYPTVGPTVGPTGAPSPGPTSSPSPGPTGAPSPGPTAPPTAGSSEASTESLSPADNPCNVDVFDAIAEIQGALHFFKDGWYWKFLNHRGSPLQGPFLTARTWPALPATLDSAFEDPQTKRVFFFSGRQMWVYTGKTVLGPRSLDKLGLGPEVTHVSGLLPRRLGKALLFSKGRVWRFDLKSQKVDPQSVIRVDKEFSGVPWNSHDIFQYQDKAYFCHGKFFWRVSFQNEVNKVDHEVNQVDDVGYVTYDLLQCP

B1: M0237-D02: MMP-9/-2 dual reactive antibody inhibitor (parental); sFab and hIgG1 (antibody, V domains shown)
VH: EVQLLESGGGLVQPGGSLRLSCAASGFTFSQYPMWWVRQAPGKGLEWVSYIVPSGGRTYYADSVKGRFTISRDNSKNTLYLQMNSLRAEDTAVYYCAKDRAYGDYVGWNGFDYWGQGTLVTVSS
VL: DIQMTQSPATLSLSPGERATLSCRASQSISSFLAWYQQKPGQAPRLLIYDASYRATGIPARFSGSGSGTDFTLTISSLEPEDYAVYYCQQRGNWPITFGQGTRLEIK
lymphocyte infiltration [1]: significantly decreased
neutrophil infiltration [1]: significantly decreased
total white blood cell infiltration [1]: significantly decreased
inhibition model [2]: non competitive inhibitor
inhibition model (Mouse MMP-9): non competitive inhibitor
inhibition of gelatinolytic activity (MCF-7 tumor sections): complete inhibition
inhibition of gelatinolytic activity (Colo205 tumor sections): complete inhibition
affinity for hMMP-9 (in words) (MMP-9): high affinity

Source: patent publication US20110135573A1, “METALLOPROTEINASE 9 AND METALLOPROTEINASE 2 BINDING PROTEINS” (DYAX CORP., priority 2009, published 2011)
